# Measurements as given in patent publication US8367390B2, “Galactanase variants” (Novozymes A/S, priority 2002, dated 2013).
# B1: HIGAL: GH Family 53 galactanase from Humicola insolens, SEQ ID NO: 2 (wild type parent) (protein, listed as Humicola insolens)
# chain: ALQYKGVDWSSVMVEERAGVRYKNVNGQEKPLEYILAENGVNMVRQRVWVNPWDGNYNLDYNIQLARRAKAAGLGLYINFHYSDTWADPAHQTTPAGWPSDINNLAWKLYNYTLDSMNRFADAGIQVDIVSIGNEITQGLLWPLGKTNNWYNIARLLHSAAWGVKDSRLNPKPKIMVHLDNGWNWDTQNWWYTNVLSQGPFEMSDFDMMGVSFYPFYSASATLDSLRRSLNNMVSRWGKEVAVVETNWPTSCPYPRYQFPADVRNVPFSAAGQTQYIQSVANVVSSVSKGVGLFYWEPAWIHNANLGSSCADNTMFTPSGQALSSLSVFHRI
# modifications: mat_peptide (1)..()
# Assay: Activity with ONPG, release of o-nitrophenol (ONP) at 405 nm
# Type: biochemical
# Settings: enzyme 110 μg/ml, ONPG 5 mg/ml
# Description: The activity of HIGAL and MTGAL with ONPG was tested by mixing 200 microliters (normally 5.5 mg/ml) ONPG in 50 mM sodium acetate, 1 mM CaCl2, 0.01% Triton X-100, pH 6.5 with 25 microliters galactanase (normally 1 mg/ml) in the well of a microtiter plate. Release of o-nitrophenol (ONP) was measured at room temperature at 405 nm every 10 seconds normally for 30 min on a SpectraMaxPlus (Molecular Devices). Effects on the observed release of ONP was studied with varied enzyme concentration, ONPG concentration and with addition of galactose (Gal), beta-1,4-galactobiose (Gal2) (Megazyme), beta-1,4-galactotriose (Gal3), beta-1,4-galactotetraose (Gal4), glucose (Glu), arabinose (Ara), galacturonic acid (GalA), maltose (Mal) or maltotriose (Mal3).
# In Tables 8-11 below, incubation times required to increase the observed absorbance at 405 nm by given amounts are listed. Cells marked ‘n.r.’ indicate that the increase in absorbance was not reached in the experiment. In general, the initial increase in absorbance at 405 nm was very slow, but after a lag phase the rate of ONP release often increased drastically—often approximately exponentially. The most likely explanation for the observed kinetics is that ONPG reacts with the enzyme to give an enzyme-galactosyl intermediate which hydrolyses very slowly. Instead, the Gal of the intermediate is released by transglycosylation, initially with ONPG or added sugar as acceptor. In cases where the rate of ONP release increases, these transglycosylation products are even better acceptors than the initial ones. […] More likely, Gal inhibits the subsequent transglycosylation, which requires binding of ONPG to the +1 and +2 subsites, e.g., by binding to the +2 subsite. With 50 mg/ml Gal added (results not shown) release of ONP was even slower with only insignificant increase of absorbance at 405 nm in 30 min.
# [1] = Table 11, no sugar, first experiment
# [2] = Table 11, no sugar, second experiment
# [3] = Table 11, no sugar, third experiment
molecule,measurement,setting,value
B1,Initial rate (mOD/min),"Table 10, Gal3 0.5 mg/ml",200 mOD/min
same,Time (min) to increase A405 by: 0.025,"Table 10, Gal3 0.5 mg/ml",0.0 min
same,Time (min) to increase A405 by: 0.05,"Table 10, Gal3 0.5 mg/ml",0.2 min
same,Time (min) to increase A405 by: 0.1,"Table 10, Gal3 0.5 mg/ml",0.3 min
same,Time (min) to increase A405 by: 0.2,"Table 10, Gal3 0.5 mg/ml",0.5 min
same,Time (min) to increase A405 by: 0.4,"Table 10, Gal3 0.5 mg/ml",0.8 min
same,Time (min) to increase A405 by: 0.8,"Table 10, Gal3 0.5 mg/ml",1.5 min
same,Time (min) to increase A405 by: 1.6,"Table 10, Gal3 0.5 mg/ml",2.5 min
same,Time (min) to increase A405 by: 3.2,"Table 10, Gal3 0.5 mg/ml",3.8 min
same,Initial rate (mOD/min),"Table 10, Gal4 0.05 mg/ml",80 mOD/min
same,Time (min) to increase A405 by: 0.025,"Table 10, Gal4 0.05 mg/ml",0.2 min
same,Time (min) to increase A405 by: 0.05,"Table 10, Gal4 0.05 mg/ml",0.5 min
same,Time (min) to increase A405 by: 0.1,"Table 10, Gal4 0.05 mg/ml",0.8 min
same,Time (min) to increase A405 by: 0.2,"Table 10, Gal4 0.05 mg/ml",1.5 min
same,Time (min) to increase A405 by: 0.4,"Table 10, Gal4 0.05 mg/ml",2.5 min
same,Time (min) to increase A405 by: 0.8,"Table 10, Gal4 0.05 mg/ml",3.7 min
same,Time (min) to increase A405 by: 1.6,"Table 10, Gal4 0.05 mg/ml",5.2 min
same,Time (min) to increase A405 by: 3.2,"Table 10, Gal4 0.05 mg/ml",7.5 min
same,Initial rate (mOD/min),"Table 10, Gal4 0.5 mg/ml",700 mOD/min
same,Time (min) to increase A405 by: 0.025,"Table 10, Gal4 0.5 mg/ml",0.0 min
same,Time (min) to increase A405 by: 0.05,"Table 10, Gal4 0.5 mg/ml",0.0 min
same,Time (min) to increase A405 by: 0.1,"Table 10, Gal4 0.5 mg/ml",0.0 min
same,Time (min) to increase A405 by: 0.2,"Table 10, Gal4 0.5 mg/ml",0.2 min
same,Time (min) to increase A405 by: 0.4,"Table 10, Gal4 0.5 mg/ml",0.5 min
same,Time (min) to increase A405 by: 0.8,"Table 10, Gal4 0.5 mg/ml",1.0 min
same,Time (min) to increase A405 by: 1.6,"Table 10, Gal4 0.5 mg/ml",2.2 min
same,Time (min) to increase A405 by: 3.2,"Table 10, Gal4 0.5 mg/ml",5.3 min
same,Initial rate (mOD/min),"Table 10, no sugar",0.9 mOD/min
same,Time (min) to increase A405 by: 0.025,"Table 10, no sugar",10.0 min
same,Time (min) to increase A405 by: 0.05,"Table 10, no sugar",11.3 min
same,Time (min) to increase A405 by: 0.1,"Table 10, no sugar",12.8 min
same,Time (min) to increase A405 by: 0.2,"Table 10, no sugar",14.2 min
same,Time (min) to increase A405 by: 0.4,"Table 10, no sugar",15.7 min
same,Time (min) to increase A405 by: 0.8,"Table 10, no sugar",17.0 min
same,Time (min) to increase A405 by: 1.6,"Table 10, no sugar",18.5 min
same,Time (min) to increase A405 by: 3.2,"Table 10, no sugar",20.0 min
same,Time (min) to increase A405 by: 0.025,"Table 11, Ara 5 mg/ml",26.5 min
same,Time (min) to increase A405 by: 0.05,"Table 11, Ara 5 mg/ml",n.r.
same,Time (min) to increase A405 by: 0.1,"Table 11, Ara 5 mg/ml",n.r.
same,Time (min) to increase A405 by: 0.2,"Table 11, Ara 5 mg/ml",n.r.
same,Time (min) to increase A405 by: 0.4,"Table 11, Ara 5 mg/ml",n.r.
same,Time (min) to increase A405 by: 0.8,"Table 11, Ara 5 mg/ml",n.r.
same,Time (min) to increase A405 by: 1.6,"Table 11, Ara 5 mg/ml",n.r.
same,Time (min) to increase A405 by: 3.2,"Table 11, Ara 5 mg/ml",n.r.
same,Time (min) to increase A405 by: 0.025,"Table 11, GalA 5 mg/ml",9.5 min
same,Time (min) to increase A405 by: 0.05,"Table 11, GalA 5 mg/ml",11.2 min
same,Time (min) to increase A405 by: 0.1,"Table 11, GalA 5 mg/ml",12.7 min
same,Time (min) to increase A405 by: 0.2,"Table 11, GalA 5 mg/ml",14.3 min
same,Time (min) to increase A405 by: 0.4,"Table 11, GalA 5 mg/ml",15.8 min
same,Time (min) to increase A405 by: 0.8,"Table 11, GalA 5 mg/ml",17.5 min
same,Time (min) to increase A405 by: 1.6,"Table 11, GalA 5 mg/ml",19.3 min
same,Time (min) to increase A405 by: 3.2,"Table 11, GalA 5 mg/ml",22.5 min
same,Time (min) to increase A405 by: 0.025,"Table 11, GalA 50 mg/ml",13.7 min
same,Time (min) to increase A405 by: 0.05,"Table 11, GalA 50 mg/ml",16.7 min
same,Time (min) to increase A405 by: 0.1,"Table 11, GalA 50 mg/ml",20.0 min
same,Time (min) to increase A405 by: 0.2,"Table 11, GalA 50 mg/ml",23.3 min
same,Time (min) to increase A405 by: 0.4,"Table 11, GalA 50 mg/ml",26.8 min
same,Time (min) to increase A405 by: 0.8,"Table 11, GalA 50 mg/ml",n.r.
same,Time (min) to increase A405 by: 1.6,"Table 11, GalA 50 mg/ml",n.r.
same,Time (min) to increase A405 by: 3.2,"Table 11, GalA 50 mg/ml",n.r.
same,Time (min) to increase A405 by: 0.025,"Table 11, Glu 5 mg/ml",12.8 min
same,Time (min) to increase A405 by: 0.05,"Table 11, Glu 5 mg/ml",14.8 min
same,Time (min) to increase A405 by: 0.1,"Table 11, Glu 5 mg/ml",17.0 min
same,Time (min) to increase A405 by: 0.2,"Table 11, Glu 5 mg/ml",19.3 min
same,Time (min) to increase A405 by: 0.4,"Table 11, Glu 5 mg/ml",21.8 min
same,Time (min) to increase A405 by: 0.8,"Table 11, Glu 5 mg/ml",24.3 min
same,Time (min) to increase A405 by: 1.6,"Table 11, Glu 5 mg/ml",27.0 min
same,Time (min) to increase A405 by: 3.2,"Table 11, Glu 5 mg/ml",n.r.
same,Time (min) to increase A405 by: 0.025,"Table 11, Mal 5 mg/ml",11.5 min
same,Time (min) to increase A405 by: 0.05,"Table 11, Mal 5 mg/ml",13.0 min
same,Time (min) to increase A405 by: 0.1,"Table 11, Mal 5 mg/ml",14.3 min
same,Time (min) to increase A405 by: 0.2,"Table 11, Mal 5 mg/ml",15.7 min
same,Time (min) to increase A405 by: 0.4,"Table 11, Mal 5 mg/ml",17.2 min
same,Time (min) to increase A405 by: 0.8,"Table 11, Mal 5 mg/ml",18.7 min
same,Time (min) to increase A405 by: 1.6,"Table 11, Mal 5 mg/ml",20.2 min
same,Time (min) to increase A405 by: 3.2,"Table 11, Mal 5 mg/ml",22.0 min
same,Time (min) to increase A405 by: 0.025,"Table 11, Mal3 5 mg/ml",11.0 min
same,Time (min) to increase A405 by: 0.05,"Table 11, Mal3 5 mg/ml",12.3 min
same,Time (min) to increase A405 by: 0.1,"Table 11, Mal3 5 mg/ml",13.8 min
same,Time (min) to increase A405 by: 0.2,"Table 11, Mal3 5 mg/ml",15.2 min
same,Time (min) to increase A405 by: 0.4,"Table 11, Mal3 5 mg/ml",16.5 min
same,Time (min) to increase A405 by: 0.8,"Table 11, Mal3 5 mg/ml",18.0 min
same,Time (min) to increase A405 by: 1.6,"Table 11, Mal3 5 mg/ml",19.3 min
same,Time (min) to increase A405 by: 3.2,"Table 11, Mal3 5 mg/ml",21.3 min
same,Time (min) to increase A405 by: 0.025,[1],8.5 min
same,Time (min) to increase A405 by: 0.05,[1],9.5 min
same,Time (min) to increase A405 by: 0.1,[1],10.8 min
same,Time (min) to increase A405 by: 0.2,[1],12.0 min
same,Time (min) to increase A405 by: 0.4,[1],13.3 min
same,Time (min) to increase A405 by: 0.8,[1],14.5 min
same,Time (min) to increase A405 by: 1.6,[1],15.8 min
same,Time (min) to increase A405 by: 3.2,[1],17.3 min
same,Time (min) to increase A405 by: 0.025,[2],11.0 min
same,Time (min) to increase A405 by: 0.05,[2],12.5 min
same,Time (min) to increase A405 by: 0.1,[2],13.8 min
same,Time (min) to increase A405 by: 0.2,[2],15.2 min
same,Time (min) to increase A405 by: 0.4,[2],16.5 min
same,Time (min) to increase A405 by: 0.8,[2],18.0 min
same,Time (min) to increase A405 by: 1.6,[2],19.5 min
same,Time (min) to increase A405 by: 3.2,[2],21.3 min
same,Time (min) to increase A405 by: 0.025,[3],8.7 min
same,Time (min) to increase A405 by: 0.05,[3],9.8 min
same,Time (min) to increase A405 by: 0.1,[3],11.0 min
same,Time (min) to increase A405 by: 0.2,[3],12.2 min
same,Time (min) to increase A405 by: 0.4,[3],13.3 min
same,Time (min) to increase A405 by: 0.8,[3],14.7 min
same,Time (min) to increase A405 by: 1.6,[3],16.0 min
same,Time (min) to increase A405 by: 3.2,[3],17.3 min
